# In patent US20240262919A1 (SHANGHAITECH UNIVERSITY, published 2024):
# Substitutions are numbered along the chain they refer to.
# T1: human IL-18Rβ ECD Fc fusion (118-AP-100, R&D Systems) (human, UniProt O95256 20-356)
# T1 construct: Bought protein; also called hIL-18Rβ; recombinant human IL-18Rb; not shown: Fc tag of the bought fusion protein, not described
# T1 sequence: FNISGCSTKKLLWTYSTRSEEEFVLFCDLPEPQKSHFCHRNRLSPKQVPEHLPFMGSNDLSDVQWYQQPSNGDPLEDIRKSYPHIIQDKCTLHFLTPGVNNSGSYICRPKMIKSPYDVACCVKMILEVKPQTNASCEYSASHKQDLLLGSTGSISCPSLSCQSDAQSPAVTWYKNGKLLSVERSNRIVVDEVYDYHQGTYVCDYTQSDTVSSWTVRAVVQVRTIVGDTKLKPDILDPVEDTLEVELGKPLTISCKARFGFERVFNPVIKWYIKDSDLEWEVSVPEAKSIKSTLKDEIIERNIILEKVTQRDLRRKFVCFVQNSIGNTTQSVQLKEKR
# T2: mouse IL-18Rβ (mouse, UniProt Q9Z2B1 20-356, limits assumed)
# T2 construct: also called Mouse receptor; mouse ortholog
# T2 sequence (looked up): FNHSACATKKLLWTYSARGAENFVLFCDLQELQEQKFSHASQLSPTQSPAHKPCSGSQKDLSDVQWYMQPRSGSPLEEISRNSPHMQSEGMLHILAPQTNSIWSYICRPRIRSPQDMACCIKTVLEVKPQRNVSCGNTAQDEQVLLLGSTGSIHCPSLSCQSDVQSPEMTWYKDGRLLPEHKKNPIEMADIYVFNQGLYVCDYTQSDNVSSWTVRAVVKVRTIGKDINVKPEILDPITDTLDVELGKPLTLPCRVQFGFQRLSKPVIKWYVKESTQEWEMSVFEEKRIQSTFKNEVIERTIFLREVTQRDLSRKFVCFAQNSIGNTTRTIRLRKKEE
# T3: human IL-18Rα ECD Fc fusion (816-LR-100; R&D Systems) (human, UniProt Q13478 22-329)
# T3 construct: extracellular domain; Bought protein; also called Human receptor; not shown: Fc tag of the bought fusion protein, not described
# T3 sequence (looked up): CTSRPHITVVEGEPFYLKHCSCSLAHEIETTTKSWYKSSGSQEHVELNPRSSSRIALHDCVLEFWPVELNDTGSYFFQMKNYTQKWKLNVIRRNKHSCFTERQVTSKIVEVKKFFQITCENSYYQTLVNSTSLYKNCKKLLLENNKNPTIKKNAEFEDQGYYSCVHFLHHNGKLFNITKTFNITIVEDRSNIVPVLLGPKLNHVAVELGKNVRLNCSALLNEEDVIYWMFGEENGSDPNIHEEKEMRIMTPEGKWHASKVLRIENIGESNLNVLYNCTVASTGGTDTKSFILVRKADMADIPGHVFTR
# B1: Fab 3144 (Fab)
# heavy: EVQLVESGGGLVQPGGSLRLSCAASGFNLSYYSIHWVRQAPGKGLEWVASIYSYSGYTSYADSVKGRFTISADTSKNTAYLQMNSLRAEDTAVYYCARSSAMDYWGQGTLVTVSSASTKGPSVFPLAPSSKSTSGGTAALGCLVKDYFPEPVTVSWNSGALTSGVHTFPAVLQSSGLYSLSSVVTVPSSSLGTQTYICNVNHKPSNTKVDKKVEPKSCDKTHT
# light: DIQMTQSPSSLSASVGDRVTITCRASQSVSSAVAWYQQKPGKAPKLLIYSASSLYSGVPSRFSGSRSGTDFTLTISSLQPEDFATYYCQQHWWGYPLITFGQGTKVEIKRTVAAPSVFIFPPSDSQLKSGTASVVCLLNNFYPREAKVQWKVDNALQSGNSQESVTEQDSKDSTYSLSSTLTLSKADYEKHKVYACEVTHQGLSSPVTKSFNRGECGGSDYKDDDDK
# notes: also called F3144
# B2: Fab 3131 (Fab)
# heavy: EVQLVESGGGLVQPGGSLRLSCAASGFNLYYSSMHWVRQAPGKGLEWVASIYSSYGYTYYADSVKGRFTISADTSKNTAYLQMNSLRAEDTAVYYCARSSFSHGYGWYGLDYWGQGTLVTVSSASTKGPSVFPLAPSSKSTSGGTAALGCLVKDYFPEPVTVSWNSGALTSGVHTFPAVLQSSGLYSLSSVVTVPSSSLGTQTYICNVNHKPSNTKVDKKVEPKSCDKTHT
# light: DIQMTQSPSSLSASVGDRVTITCRASQSVSSAVAWYQQKPGKAPKLLIYSASSLYSGVPSRFSGSRSGTDFTLTISSLQPEDFATYYCQQYGYHYAGLITFGQGTKVEIKRTVAAPSVFIFPPSDSQLKSGTASVVCLLNNFYPREAKVQWKVDNALQSGNSQESVTEQDSKDSTYSLSSTLTLSKADYEKHKVYACEVTHQGLSSPVTKSFNRGECGGSDYKDDDDK
# notes: also called F3131
# B3: Fab 3132 (Fab)
# heavy: B1 heavy with L29I, S33Y, S99A
# light: B2 light with Y91H, G92W, Y93W, H94A, Y95S, A96V, G97P, L98P, I99F
# notes: also called F3132
# B4: Fab 12 (Fab)
# heavy: EVQLVESGGGLVQPGGSLRLSCAASGFNISSSSIHWVRQAPGKGLEWVASISPSYSSTYYADSVKGRFTISADTSKNTAYLQMNSLRAEDTAVYYCARGAFDYWGQGTLVTVSSASTKGPSVFPLAPSSKSTSGGTAALGCLVKDYFPEPVTVSWNSGALTSGVHTFPAVLQSSGLYSLSSVVTVPSSSLGTQTYICNVNHKPSNTKVDKKVEPKSCDKTHT
# light: DIQMTQSPSSLSASVGDRVTITCRASQSVSSAVAWYQQKPGKAPKLLIYSASSLYSGVPSRFSGSRSGTDFTLTISSLQPEDFATYYCQQYWHPFTFGQGTKVEIKRTVAAPSVFIFPPSDSQLKSGTASVVCLLNNFYPREAKVQWKVDNALQSGNSQESVTEQDSKDSTYSLSSTLTLSKADYEKHKVYACEVTHQGLSSPVTKSFNRGECGGSDYKDDDDK
# notes: Anti-IL-18Rα Fab; also called F12
# B5: Fab A3 (Fab)
# heavy: EVQLVESGGGLVQPGGSLRLSCAASGFNLYSSYIHWVRQAPGKGLEWVASIYSSSGYTYYADSVKGRFTISADTSKNTAYLQMNSLRAEDTAVYYCARSVHSYYSSAAYYAMDYWGQGTLVTVSSASTKGPSVFPLAPSSKSTSGGTAALGCLVKDYFPEPVTVSWNSGALTSGVHTFPAVLQSSGLYSLSSVVTVPSSSLGTQTYICNVNHKPSNTKVDKKVEPKSCDKTHT
# light: B4 light with Y91S, W92Y, H93F, P94L, F95I
# notes: also called FA3
# Experiments:
# [1] = molecular target: T1, human IL-18Rβ ECD Fc fusion …; test: SPR (Table 5 title), Fab on human receptor
# mouse IL-18Rβ = molecular target: T2, mouse IL-18Rβ; test: SPR (Table 5 title), Fab on mouse receptor
# [2] = molecular target: T1, human IL-18Rβ ECD Fc fusion …; test: multipoint direct binding ELISA (drawn table, column EC50 (nM))
# [3] = molecular target: T1, human IL-18Rβ ECD Fc fusion …; test: competitive binding ELISA with soluble receptor (drawn table, column IC50 (nM))
# [4] = molecular target: T1, human IL-18Rβ ECD Fc fusion …; test: biolayer interferometry (BLI) after legend paragraph 36; drawn table, head KD (nM), Human receptor
# [5] = molecular target: T1, human IL-18Rβ ECD Fc fusion …; test: biolayer interferometry (BLI) after legend paragraph 36; drawn table, head kd (10^-4 s^-1), Human receptor
# [6] = molecular target: T1, human IL-18Rβ ECD Fc fusion …; test: biolayer interferometry (BLI) after legend paragraph 36; drawn table, head ka (10^4 M^-1 s^-1), Human receptor
# [7] = molecular target: T1, human IL-18Rβ ECD Fc fusion …; test: direct binding ELISA on immobilised human IL-18Rβ, OD 450 against concentration; panel title and axes say IgG, the key and legend paragraph 36 say Fab
# [8] = molecular target: T1, human IL-18Rβ ECD Fc fusion …; test: competitive ELISA: signal on immobilised receptor after incubation with a two-fold dilution series of soluble hIL-18Rβ; the concentration axis is the soluble receptor; y axis printed 'Inhibition (%)'
# [9] = molecular target: T3, human IL-18Rα ECD Fc fusion …; test: SPR, Fab on human receptor
# [10] = molecular target: T3, human IL-18Rα ECD Fc fusion …; test: multipoint direct binding ELISA (drawn table, column EC50 (nM)); the cell equals that of row A3
# [11] = molecular target: T3, human IL-18Rα ECD Fc fusion …; test: competitive binding ELISA with soluble receptor (drawn table, column IC50 (nM)); the cell equals that of row A3
# [12] = molecular target: T3, human IL-18Rα ECD Fc fusion …; test: direct binding ELISA on immobilised human IL-18Rα (target after legend paragraph 36 and the table of panel C), OD 450 against concentration; panel title and axes say IgG, the key and legend say Fab
# [13] = molecular target: T3, human IL-18Rα ECD Fc fusion …; test: competitive ELISA with a dilution series of soluble receptor; the axis is printed 'Soluble hIL18Rβ concentration (nM)', but legend paragraph 36 and the table of panel C give IL-18Rα for this trace; the competitor is the immobilised receptor; y axis printed 'Inhibition (%)'
Binder,Kd [1] [nM],koff [1] [s⁻¹],kon [1] [M⁻¹ s⁻¹],Kd (mouse IL-18Rβ) [nM],koff (mouse IL-18Rβ) [s⁻¹],kon (mouse IL-18Rβ) [M⁻¹ s⁻¹],EC50 [2] [nM],IC50 [3] [nM],Kd [4] [nM],koff [5] [s⁻¹],kon [6] [M⁻¹ s⁻¹],EC50 (read off the curve) [7] [nM],IC50 (read off the curve) [8] [nM],Kd [9] [nM],koff [9] [s⁻¹],kon [9] [M⁻¹ s⁻¹],EC50 [10] [nM],IC50 [11] [nM],EC50 (read off the curve) [12] [nM],IC50 (read off the curve) [13] [nM]
B1,1.8,0.00058,320000,12.9,0.0012,93000,16,19,6.4,0.0011,170000,~0.4,~2,,,,,,,
B2,6.2,0.00127,210000,5.2,0.00062,120000,16,82,6.1,0.0013,210000,~0.3,1 to 2,,,,,,,
B3,,,,,,,33,74,133,0.0013,10000,~0.5,~9,,,,,,,
B4,,,,,,,,,,,,,,1.9,0.0002,110000,86,105,~0.8,~20
B5,78,0.0016,20000,,,,86,105,30,0.0015,51000,,,,,,,,,
